This is an account of results in patent US20250011363A1, “OPTIMIZED SHORTENED PEPTIDE THAT BINDS TO ACETYLCHOLINE RECEPTOR, AND USE THEREOF” (SKINMED CO., LTD., priority 2021, published 2025).

This experiment has as its target acetylcholine receptor. Briefly: SPR, AchR immobilised on CM5 chip, peptide at 10 uM.

RRGFQK [6mer-1-438] had a Binding affinity (RU) of 142 RU.

RKLIYR [6mer-1-416] gave a Binding affinity (RU) of 153 RU.

The molecule KKWQQK [6mer-1-453] yielded a Binding affinity (RU) of 154 RU.

KKGQYR [6mer-1-426] yielded a Binding affinity (RU) of 131 RU.

In turn, RRRVLR [6mer-1-402] yielded a Binding affinity (RU) of 153 RU.

Turning to KRRQTK [6mer-1-439], the Binding affinity (RU) stood at 121 RU.

The molecule RRWISR [6mer-1-409] came in with a Binding affinity (RU) of 144 RU.

Molecule RRQVRK [6mer-1-418] had a Binding affinity (RU) of 123 RU.

RKLQYK [6mer-1-442] gave a Binding affinity (RU) of 131 RU.

On to RRVFYK [6mer-1-455], for which the Binding affinity (RU) worked out at 126 RU.

In turn, RRGYTR [6mer-1-461] showed a Binding affinity (RU) of 142 RU.

Molecule RKVLYR [6mer-1-421] had a Binding affinity (RU) of 135 RU.

Turning to RKVRLR [6mer-1-451], the Binding affinity (RU) came to 153 RU.

Molecule RKVLLR [6mer-1-406] came in with a Binding affinity (RU) of 153 RU.

RRQRSR [6mer-1-411] gave a Binding affinity (RU) of 121 RU.

Molecule RKGVQK [6mer-1-425] yielded a Binding affinity (RU) of 131 RU.

Turning to KKQLQK [6mer-1-430], the Binding affinity (RU) is 144 RU.

As for KRSFRK [6mer-1-463], the Binding affinity (RU) stood at 153 RU.

As for RKWRCK [6mer-1-435], the Binding affinity (RU) was 135 RU.

As for RRRQQK [6mer-1-447], the Binding affinity (RU) stood at 146 RU.

The molecule RRGVCR [6mer-1-415] registered a Binding affinity (RU) of 135 RU.

Turning to RKQQYR [6mer-1-433], the Binding affinity (RU) amounted to 154 RU.

For the molecule RKWFLK [6mer-1-437], the Binding affinity (RU) stood at 131 RU.

In turn, RKVLRR [6mer-1-454] gave a Binding affinity (RU) of 124 RU.

Take RYHWR [5mer-896]: the Binding affinity (RU) is 27 RU.

Molecule RKQILK [6mer-1-462] registered a Binding affinity (RU) of 126 RU.

RRGFYR [6mer-1-460] registered a Binding affinity (RU) of 148 RU.

RKGIQK [6mer-1-432] displayed a Binding affinity (RU) of 139 RU.

For RKGQLK [6mer-1-1458], the Binding affinity (RU) was determined as 139 RU.

In turn, KRSFLR [6mer-1-414] gave a Binding affinity (RU) of 153 RU.

RAADK [5mer-1198] registered a Binding affinity (RU) of 25 RU.

RKVVYK [6mer-1-450] returned a Binding affinity (RU) of 151 RU.

Regarding RRVYYR [6mer-1-441], the Binding affinity (RU) was found to be 146 RU.

In turn, RKSILK [6mer-1-412] came in with a Binding affinity (RU) of 139 RU.

As to RRQRRK [6mer-1-429], the Binding affinity (RU) was 135 RU.

KFCER [5mer-897] yielded a Binding affinity (RU) of 30 RU.

For RRVIRR [6mer-1-446], the Binding affinity (RU) was found to be 124 RU.

RYCMR [5mer-898] returned a Binding affinity (RU) of 20 RU.

Consider RKRFSR [6mer-1-448], for which the Binding affinity (RU) is 141 RU.

Regarding KRLYTR [6mer-1-452], the Binding affinity (RU) was 141 RU.

For KRVRQR [6mer-1-422], the Binding affinity (RU) is 154 RU.

In turn, KRSQTK [6mer-1-403] came in with a Binding affinity (RU) of 153 RU.

Turning to KRLRTR [6mer-1-407], the Binding affinity (RU) is 153 RU.

Molecule KRVYSK [6mer-1-440] had a Binding affinity (RU) of 153 RU.

RRGYCK [6mer-1-423] had a Binding affinity (RU) of 147 RU.

In turn, KRVVLR [6mer-1-428] registered a Binding affinity (RU) of 139 RU.

In the case of KKWILK [6mer-1-444], the Binding affinity (RU) was found to be 144 RU.

RRWVYK [6mer-1-459] returned a Binding affinity (RU) of 131 RU.

Take KRGRSR [6mer-1-408]: the Binding affinity (RU) stood at 147 RU.

Consider KKGQYK [6mer-1-420], for which the Binding affinity (RU) worked out at 148 RU.

The molecule KKQRQK [6mer-1-404] displayed a Binding affinity (RU) of 137 RU.

In turn, KRGRCK [6mer-1-449] returned a Binding affinity (RU) of 135 RU.

The molecule KRSICR [6mer-1-466] registered a Binding affinity (RU) of 148 RU.

As to RKQFCR [6mer-1-413], the Binding affinity (RU) is 148 RU.

Consider KRVLRK [6mer-1-410], for which the Binding affinity (RU) amounted to 148 RU.

Molecule RRRFRR [6mer-1-431] displayed a Binding affinity (RU) of 144 RU.

Molecule KRVRLR [6mer-1-445] gave a Binding affinity (RU) of 145 RU.

RKSVCK [6mer-1-417] registered a Binding affinity (RU) of 139 RU.

For RICIR [5mer-1196], the Binding affinity (RU) is 24 RU.

RRRIYR [6mer-1-424] gave a Binding affinity (RU) of 135 RU.

On to RKQVYK [6mer-1-465], for which the Binding affinity (RU) was 154 RU.

Molecule KKVQTR [6mer-1-1405] came in with a Binding affinity (RU) of 148 RU.

RKLLCR [6mer-1-457] registered a Binding affinity (RU) of 121 RU.

In the case of KRWVCR [6mer-1-434], the Binding affinity (RU) is 137 RU.

In turn, KRWVLR [6mer-1-427] showed a Binding affinity (RU) of 147 RU.

In turn, KDDAR [5mer-1197] gave a Binding affinity (RU) of 24 RU.

KKLFYK [6mer-1-436] had a Binding affinity (RU) of 148 RU.

In turn, RKVLLK [6mer-1-443] registered a Binding affinity (RU) of 145 RU.

Molecule KRGFYR [6mer-1-419] yielded a Binding affinity (RU) of 148 RU.

In turn, RRQRLK [6mer-1-464] yielded a Binding affinity (RU) of 131 RU.

In the case of RRGQYR [6mer-1-456], the Binding affinity (RU) turned out to be 153 RU.
